The series is described as follows: soluble on expression in E. coli; label from the status in PepcDB or PDB records.
In the case of “MAHHHHHHMNHSPFLTALYTDVQSRLPLWTTRYVKPISNGTFAVSSTWTDDSGAQLQRLFIAVEASDTNCISEAVLAEWIAFVEAWQAAHKEDEVSCFVGFVDLAGTVSYYRCETAVAGAWRSKPDDHLTCR”, the “soluble on expression in E. coli” value is recorded as “not soluble”.
“MGGLSAQSTAATATMGGKNKQRTKGNLRPSNSGRAAELLAKEQGTVPGFIGFGTSQSDLGYVPAIQGAEEIDSLVDSDFRMVLRKLSKKDVTTKLKAMQEFGTMCTERDTETVKGVLPYWPRIFCKISLDHDRRVREATQQAFEKLILKVKKQLGPYLKSLMGYWLMAQCDTYTPAAFAAKDAFEAAFPPSKQPEAIAFCKDEITSVLQDHLIKETPDTLSDPQTVQRKKEKLNSTGLLEHHHHHH”: the “soluble on expression in E. coli” value was “not soluble”.
With “MGSDKIHHHHHHMSTALFHHHSTLQDQLVAIHAALRASLPDIDRIAVAIYDTKTDALHTFIHSSDGRHPLDSYATTLTGVPSLAALATSGRIRVLNDLSPLALTGAHHTQVIAKAYRSSLTVPFYKGKALSGFLFFNSQQPDYFTSRRIDTLALAAEMICSRVIDTVISVEMLTSTIQIAKDISHFRDEETGAHLDRVANYARLIAETMGKEPSALPPGRHPVLDDEFAQMIFLFAPLHDIGKVAIPDHVLLKPGPLTPEERTIMRTHSDKGLAICRRILENVDFISGTQAAMLCDIVHAHHEAWDGSGYPRGLSGADIPLAAAIVTVADVFDALTSARPYKKPWSTEDAFAYLQEKSGQLFNPACVRAFLAHRDDVLAIRARFRDEVIPEAFQTPQTPQSKADKV” the entry was “not soluble”; with “MSLDPEDVYDGGYGSKHSPVQLRIGNGGAGQSGLVKELADAFIKSKVDSGSAPFKVAWYKSDTTVTINYLKDGIVDVGITYSPVAERISIKHGISESPSYYAFRDHFMLIGPPSNPAKLSGDSDIADMFSKMHDAAEAGNTKPPVRFLSRYDKSATNIKEAELWLSIGQVPWATAYSTWYHQYITFPIQALTAAILLREYTITDYGTYLSIPRGLRDQMVIYKKGTNDADDPLLNPAHLLVGARAKNAEMAKEFAKWLVSKEGGQKVIEGFKKDGQQLYSPAPYRHEGHHHHHH”, “soluble”.
The value for “MTSGGNSIEPSVVAEAEKMLFCYQYDQTITISITSSADPCPLCNGGFLDEYVDPNPNPIPNLILPMSDPISSRFSFIPVMDFTNPSFLGESMEPQSTQQQLNAFDPNQLSDQANPLAGNHGDYFFGRGLEDLI” was “not soluble”; that for “MGHHHHHHGGHMSLSAYKTVVVGTDGSDSSMRAVDRAAQIAGADAKLIIASAYLPQHEDARAADILKDESYKVTGTAPIYEILHDAKERAHNAGAKNVEERPIVGAPVDALVNLADEEKADLLVVGNVGLSTIAGRLLGSVPANVSRRAKVDVLIVHTTEGGS” was “soluble”; that for “GWIQELTAGHAEHTPETEEYGISSFVYKRRLPFHSTRFYRWLDQMPKNVVRAKGIVWCASHNNLALLMSQAGPSVTIEPVSYWVAALPKLEQEQVKQQEPEILEEWDPEFGDRLTQLVFIGTDLDEETITKELDQCLLTEYEFDSDWSLFEDPFKWKLNQ” was “not soluble”.
With “MLGVGKIGGAIVKSLLSCGAVVTGTGRRRETLERISRLGAEATVDNRLAAKVSDVVILSVKPYQLPRLLEEIRDVMEGKIVVSVVAGVRLSTLSRALEGSHVYRAMPNINALIGRSTTAVAEYTGDKRASFVESILSCMGSVYWIPEEWMDVWTALVGSMPAYVAVMIDSLTLGGVSAGLPREVAFKAVIDTLGATAEHLGKRDIHPSVLRDEVTTPAGTTIEGLKVIEGEGVDAALIRTVEAAARRAAAIGEAIDNEVRRSLNLRAAALEHHHHHH” the entry was “not soluble”; with “MGSDKIHHHHHHMIVKDYRREFEALAKAYEKAGGDVSKFLDRRIASIIISGDKVIGLNGVEGVELTPYRIENGVQVDMRIKEGVVVEYPVHVCTGYLEKKGLQRVVFNIRLEKNAKAIFVAHCVFPWTEDFTHDALMNVELEEGAWMEYHDEHTHSETGSINLITRSIARVGERAVYRNTFTLVKTRIGTLRVFMDASLEKDAVGELYTKVKAVEDDDVEVKEILRLNGMGARGLAKTNAVAIDRAKVSVVNEVYGNAPHTRGHVECLEIAKGDGVDVRALPVLVVKNDSSELTHEASIGRVNAKQLETLMAKGLTEEEATEMIIKGILT”, “not soluble”; with “MAHHHHHHMATLQVRDFDPRTATHYYHCILAGIPHPVTLQSISSAIVPDSECESVQNLEKIGCQIVPYRLHVFKETLSLKFGVVDFFIHHSTSGESANPAEVHELFLQWFGSSLTRGVMSLNSWISLGQPRELHSATPFVSALMEKCSFFDAKVVSDIEKLRTFILSKVRFDNRGLNAHANNRSRVAASEDSSLQEEQTRTDCGNDPSVEWKSVGTLSASSLDSQELAWLSRQHRQFPSIAPANEREASATWELEPVRTFLQKALTPLVEVVK”, “not soluble”.
As to “MSQDFVTLVSKDDKEYEISRSAAMISPTLKAMIEGPFRESKGRIELKQFDSHILEKAVEYLNYNLKYSGVSEDDDEIPEFEIPTEMSLELLLAADYLSI”, the “soluble on expression in E. coli” value is “soluble”.
The value for “QYYDYDFPLSIYGQSSPNCAPECNCPESYPSAMYCDELKLKSVPMVPPGIKYLYLRNNQIDHIDEKAFENVTDLQWLILDHNLLENSKIKGRVFSKLKQLKKLHINHNNLTESVGPLPKSLEDLQLTHNKITKLGSFEGLVNLTFIHLQHNRLKEDAVSAAFKGLKSLEYLDLSFNQIARLPSGLPVSLLTLYLDNNKISNIPDEYFKRFNALQYLRLSHNELADSGIPGNSFNVSSLVELDLSYNKLKNIPTVNENLENYYLEVNQLEKFDIKSFCKILGPLSYSKIKHLRLDGNRISETSLPPDMYECLRVANEVTLN” was “not soluble”; that for “MGSDKIHHHHHHMKDKSNSPLIKELKLANLLSFGSETTDIQLNSLNVVVGPNGSGKSNLIDAISLLQASPSDLAVPIRKGGGIRDWLWRGMELPTASMEVITPSAPHGNKDLRYYLAFTALKQRFELIDECLETKEPYTNHSEPYFYYRYQNGNPVINNIKDQKRMLKREDIDPEQSILSQRKDPDQYPEITWLGKQFAAIRIYREWNFGRKALLRQPQGADAPNDYLAEDCSNLGLVLNKLRTNYKVKKKVLDLLSQFYEGIDDFDVIVEGGTVQLFLQEGEFMIPATRLSDGTLRFLCLLAILCNPDPPPLICIEEPELGIHSDIIPVIGQLLKDASKMTQLIVTTHSEILVDELTDMPEAVLVCEKHEGMTRFRRLEKDLLKDWLERYSLGELWRKGEIGGTRW” was “not soluble”; that for “MAHHHHHHGAYDVARVRGLHPSLGDGWVHFDAPAGMLIPDSVATTVSTAFRRSGASTVGAHPSARRSAAVLDAAREAVADLVNADPGGVVLGADRAVLLSLLAEASSSRAGLGYEVIVSRLDDEANIAPWLRAAHRYGAKVKWAEVDIETGELPTWQWESLISKSTRLVAVNSASGTLGGVTDLRAMTKLVHDVGALVVVDHSAAAPYRLLDIRETDADVVTVNAHAWGGPPIGAMVFRDPSVMNSFGSVSTNPYATGPARLEIGVHQFGLLAGVVASIEYLAALDESARGSRRERLAVSMQSADAYLNRVFDYLMVSLRSLPLVMLIGRPEAQIPVVSFAVHKVPADRVVQRLADNGILAIANTGSRVLDVLGVNDVGGAVTVGLAHYSTMAEVDQLVRALASLG” was “soluble”.
The value for “MGRKEEDDCSSWKKQTTNIRKTFIFMEVLGSGAFSEVFLVKQRLTGKLFALKCIKKSPAFRDSSLENEIAVLKKIKHENIVTLEDIYESTTHYYLVMQLVSGGELFDRILERGVYTEKDASLVIQQVLSAVKYLHENGIVHRDLKPENLLYLTPEENSKIMITDFGLSKMEQNGIMSTACGTPGYVAPEVLAQKPYSKAVDCWSIGVITYILLCGYPPFYEETESKLFEKIKEGYYEFESPFWDDISESAKDFICHLLEKDPNERYTCEKALSHPWIDGNTALHRDIYPSVSLQIQKNFAKSKWRQAFNAAAVVHHMRKLHMNLHSPGVRPEVENRPPETQASETSRPSSPEITITEAPVLDHSVALPALTQLPCQHGRRPTAPGGRSLNCLVNGSLHISSSLVPMHQGSLAAGPCGCCSSCLNIGSKGKSSYCSEPTLLKKANKKQNFKSEVMVPVKASGSSHCRAGQTGVCLIM” was “soluble”.
The value for “HSIISETTNTNYRQEFVQLGTQMSGKLSFEEWKELYRRIVFWEIELEQADRQMGELLEMQKQEANRLFARFVTQNYREWIAKPDTRPTMSPDLFKQKVFPLLDNGEKVFFILIDNFRQDQWESVKSMLSEFYTFEEDMYLSILPTATQYARNAIFSGLMPLQIEKMFPDLWVDEESEEGKNLNEEPMIRTLIERYRKHYSFSYNKVYETKFGERLLGQIRSLSQNQLNVIVLNFVDMMSHARTDSKMIRELASNEAAYRSLTKSWFKHSTTYNLFRSIAEMGYKVVLTTDHGTIQVKNPVKVIGDRSTNTNLRYKIGKNLDYNPKEVFEIKDPASVGLPHNNLSDKFIFTKEDDFFAYPNNYNYYVQYYRNTFQHGGISLEEMLVPVITMQPK” was “soluble”; that for “MQKRVTDEEIKERLGKIKSRIAVMSGKGGVGKSTVTALLAVHYARQGKKVGILDADFLGPSIPILFGLRNARIAVSAEGLEPVLTQKYGIKVMSMQFLLPKENTPVIWRGPLIAGMIREFLGRVAWGELDHLLIDLPPGTGDAPLTVMQDAKPTGVVVVSTPQELTAVIVEKAINMAEETNTSVLGLVENMSYFVCPNCGHKSYIFGEGKGESLAKKYNIGFFTSIPIEEELIKLADSGRIEEYEKDWFESAPFLEHHHHHH” was “soluble”.
Consider “MGSSHHHHHHGGTGENLYFQGGSGKNYFYIPIADDMHCHLRQGDMLDFTVNSIRRGGCNRVLVMPNTHPIISTCSDAQKYLYQLKSRDDDIEYLMTLYLNKNTDENDILSNYYKCNLQGVKIYPSNVTTNSSDGITSLEPYYKVFHALEKLNKSIHIHCEEPNINPLYAEEKYLPHIHDLAIKFPGLNIVLEHISSSESINVIKEFRNVAGSITPHHLYLTIDDVVNMDIYDHAIDNTYIEKYIKNTYHYCKPLPKLLEDKIALQDVIKDDFPRVFLGSDSAPHYKVMKRKPYYKPGIYTQPFLINYVAHILNKFDALDKMENFTSKNASLFLNLAEKKKLAKYYICVEKHPFKLPREYNGVVPFLAGKTLDYDIHYVSKF”, for which the “soluble on expression in E. coli” value is “not soluble”.
Take “MGSDKIHHHHHHMQTDKIFYSLFQAFTSIFFAIIGEADINPSTYEFVSVELKETAFRIDGVFKPVNETTEEPLYFVEVQFQLDPKFYRRFFAEIFLYLRQNPSVNFWRAVVIYPQRIIEPDDQQPYRSILDSSQIQRIYLDELGTANENSLQLAIMQLIIASEAIAIDQGRQLIIQARQELTDEANKKQIVELIETILLYKFTNLSREEVAAMLGIDDEFKKTRMYQSIKEDGLEEGRQEGRQQGIQEGRQEGRLQAKLEAIPRLLALGLSVEQIASALDLSIEQVQQVTGN”: the “soluble on expression in E. coli” value is listed as “not soluble”.
With “DIQFSAGLFFQYNLSENFSLRIDPTFDRKGYQYKDITFTDNSGNILGTGKLYGHLDYITIPVLFKASVGNKVKYFVNAGPSIGLLLSETFIYDNPYGNGNQKTHNTNQYKKADAGITAGLGIAIPLGNAIALSFEVRNNVGLTNINKNSNANSAIHANTTSMLVGVAYKF” the entry was “not soluble”; with “MAHHHHHHMMAAPGTSQLDSLKATARKGFYTGLSSGLMRQLIYATARLGFYPSFRDGILEGEVALGLKRSADPAGATALDRALAGASAGVFASFLSSPVEVCLVLQTTSKGKERLSMLQACNSVLKSRGVTGLWSGFGALASRAALVGVSQVAVHDQVLTMLRKRNVKRADPLGDNVVVNIASVITALFYSIVTMPVEVARVRMSAEAKLSAGAERRYHNVVQCIGRIFKEEGLLAMYDSYLPYFSRCASQTVICFFVIEYLTRELRERQKAKTNLIK”, “soluble”.

The values are drawn from the DeepSol protein solubility set.
